Experiments:
[1] = target: apo-SufR (clusterless Mtb SufR, Rv1460) (Mycobacterium tuberculosis); assay: SEC
[2] = target: holo-SufR (Mtb SufR, Rv1460, with its 4Fe–4S cluster) (Mycobacterium tuberculosis); assay: SEC

Row | Substance | stoichiometry N [1] | stoichiometry N [2]
1 | apo-SufR (clusterless Mtb SufR, Rv1460) (natural protein) | 2 | –
2 | holo-SufR (Mtb SufR, Rv1460, with its 4Fe–4S cluster) (natural protein) | – | 2
